Earlier results, collected in paper PMC3589724 (Scientific Reports, 2013).

Key:
[1] = system: CaM; conditions: in vitro, PC12B cells
[2] = system: PC12B cells
[3] = system: CaM; conditions: position Phe42

Row | Molecule | Ca^2+ sensitivity of interaction with CaM [1] | association of Nm with the membrane skeleton [2] | increase in Nm-CaM affinity on Phe-to-Trp substitution [3]
1 | S41A Nm mutant: Nm point mutant S41A (literature) (protein, UniProt P06837 1-227, looked up, variant S41A) Neuromodulin: MLCCMRRTKQVEKNDEDQKIEQDGVKPEDKAHKAATKIQAAFRGHITRKKLKGEKKGDAPAAEAEAKEKDDAPVADGVEKKEGDGSATTDAAPATSPKAEEPSKAGDAPSEEKKGEGDAAPSEEKAGSAETESAAKATTDNSPSSKAEDGPAKEEPKQADVPAAVTDAAATTPAAEDAATKAAQPPTETAESSQAEEEKDAVDEAKPKESARQDEGKEDPEADQEHA | insensitive to Ca^2+ concentrations in vitro | inhibiting the association of Nm with the membrane skeleton of PC12B cells | 
2 | Phe-to-Trp substitution: Nm with Phe-to-Trp substitution at Phe42 (literature) (protein, UniProt P06837 1-227, looked up, variant F42W) Neuromodulin: MLCCMRRTKQVEKNDEDQKIEQDGVKPEDKAHKAATKIQASWRGHITRKKLKGEKKGDAPAAEAEAKEKDDAPVADGVEKKEGDGSATTDAAPATSPKAEEPSKAGDAPSEEKKGEGDAAPSEEKAGSAETESAAKATTDNSPSSKAEDGPAKEEPKQADVPAAVTDAAATTPAAEDAATKAAQPPTETAESSQAEEEKDAVDEAKPKESARQDEGKEDPEADQEHA |  |  | 10 fold
